Values quoted from earlier work in paper PMC8138766.
Like-named read-outs stand apart in the source and are kept apart here.

Experiments:
[1] = target: V-ATPase subunit C (Saccharomyces cerevisiae) (UniProt P31412)
[2] = target: V-ATPase subunit C (Saccharomyces cerevisiae) (UniProt P31412); remark: listed apart in the source

Sequence of V-ATPase subunit C (Saccharomyces cerevisiae) (P31412 2-392): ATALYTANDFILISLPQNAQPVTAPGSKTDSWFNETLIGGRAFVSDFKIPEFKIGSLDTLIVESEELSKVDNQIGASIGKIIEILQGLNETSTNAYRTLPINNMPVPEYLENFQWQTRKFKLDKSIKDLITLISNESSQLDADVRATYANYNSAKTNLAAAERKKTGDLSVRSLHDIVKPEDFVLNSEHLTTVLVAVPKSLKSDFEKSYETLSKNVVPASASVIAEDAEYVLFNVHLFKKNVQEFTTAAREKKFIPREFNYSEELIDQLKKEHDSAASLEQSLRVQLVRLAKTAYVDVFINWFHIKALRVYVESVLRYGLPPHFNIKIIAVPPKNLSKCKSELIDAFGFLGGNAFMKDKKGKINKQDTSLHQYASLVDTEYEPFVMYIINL
Sequence of V1 (P17255 2-1071): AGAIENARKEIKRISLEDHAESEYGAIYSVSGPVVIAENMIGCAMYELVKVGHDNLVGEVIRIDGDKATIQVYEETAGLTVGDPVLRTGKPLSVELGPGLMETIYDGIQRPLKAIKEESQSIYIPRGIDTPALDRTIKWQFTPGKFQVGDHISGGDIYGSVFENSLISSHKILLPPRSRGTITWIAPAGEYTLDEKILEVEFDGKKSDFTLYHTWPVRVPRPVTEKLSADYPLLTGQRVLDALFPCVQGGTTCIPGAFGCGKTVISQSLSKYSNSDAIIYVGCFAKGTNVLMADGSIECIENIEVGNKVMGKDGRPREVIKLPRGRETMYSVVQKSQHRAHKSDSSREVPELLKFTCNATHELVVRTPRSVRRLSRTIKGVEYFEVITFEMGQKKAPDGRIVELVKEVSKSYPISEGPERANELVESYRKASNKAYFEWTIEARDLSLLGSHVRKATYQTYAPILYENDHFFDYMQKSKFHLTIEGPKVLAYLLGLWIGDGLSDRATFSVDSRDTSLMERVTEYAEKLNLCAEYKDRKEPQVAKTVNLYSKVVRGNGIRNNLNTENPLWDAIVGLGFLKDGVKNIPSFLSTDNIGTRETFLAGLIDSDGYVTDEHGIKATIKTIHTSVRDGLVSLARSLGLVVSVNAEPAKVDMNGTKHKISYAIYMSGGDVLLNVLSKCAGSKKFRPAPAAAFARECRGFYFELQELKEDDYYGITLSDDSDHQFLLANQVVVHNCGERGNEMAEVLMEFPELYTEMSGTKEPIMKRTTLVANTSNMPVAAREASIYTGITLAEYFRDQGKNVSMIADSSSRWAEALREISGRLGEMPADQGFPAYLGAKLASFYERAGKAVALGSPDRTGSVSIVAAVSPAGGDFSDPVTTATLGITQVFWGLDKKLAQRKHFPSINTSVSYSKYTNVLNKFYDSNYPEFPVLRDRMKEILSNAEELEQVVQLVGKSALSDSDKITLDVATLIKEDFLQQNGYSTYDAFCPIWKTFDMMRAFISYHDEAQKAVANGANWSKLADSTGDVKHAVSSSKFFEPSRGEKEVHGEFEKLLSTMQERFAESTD
Sequence of V1 (P16140 2-517, further chain): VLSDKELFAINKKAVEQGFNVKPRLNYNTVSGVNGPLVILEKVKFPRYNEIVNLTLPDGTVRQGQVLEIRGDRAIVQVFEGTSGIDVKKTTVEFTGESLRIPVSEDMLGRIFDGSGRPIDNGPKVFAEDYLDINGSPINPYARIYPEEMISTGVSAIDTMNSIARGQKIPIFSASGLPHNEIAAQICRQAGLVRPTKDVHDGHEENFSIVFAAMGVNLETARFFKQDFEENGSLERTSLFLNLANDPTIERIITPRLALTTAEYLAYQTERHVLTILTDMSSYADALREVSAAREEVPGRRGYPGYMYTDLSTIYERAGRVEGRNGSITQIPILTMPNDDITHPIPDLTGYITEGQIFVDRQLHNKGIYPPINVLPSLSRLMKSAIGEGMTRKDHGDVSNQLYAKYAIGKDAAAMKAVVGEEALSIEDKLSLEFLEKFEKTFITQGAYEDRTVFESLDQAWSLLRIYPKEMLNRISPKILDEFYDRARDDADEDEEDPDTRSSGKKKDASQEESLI
Sequence of EG stalk (P22203 2-233): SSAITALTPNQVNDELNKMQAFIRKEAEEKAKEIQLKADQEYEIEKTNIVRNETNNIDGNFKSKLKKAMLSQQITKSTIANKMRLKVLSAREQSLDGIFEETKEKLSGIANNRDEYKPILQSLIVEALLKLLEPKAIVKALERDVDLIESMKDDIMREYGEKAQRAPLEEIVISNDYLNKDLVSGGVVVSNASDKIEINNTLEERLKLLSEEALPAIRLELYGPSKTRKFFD
Sequence of EG stalk (P48836 2-114, further chain): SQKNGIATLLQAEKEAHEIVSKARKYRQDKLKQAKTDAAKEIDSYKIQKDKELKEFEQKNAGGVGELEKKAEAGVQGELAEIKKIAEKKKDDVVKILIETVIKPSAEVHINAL

| Substance | Kd [1] | Kd [2] |
| --- | --- | --- |
| EG stalk (from UniProt P22203) | 42 nM | – |
| V1 (from UniProt P17255) | – | 0.7 nM |
